Common to all, as to assay type: cell-based, Yarrowia
Test [1] concerns olivetolic acid. Put plainly: Linkers for GPS1.1-MPT4 fusions, in vivo assay (Example 6). Conditions: 1 mM olivetolic acid, 72 h quench; for CBGA / FCBGA: 2% glycerol, strain sCL-SE-0128; for CBGA/FCBGA: product ratio. As for the experimental part: As described in detail below, plasmids pCL-SE-0380 (MPT4), pCL-SE-0406, pCL-SE-0435, and pCL-SE-0437 were transformed into strain sCL-SE-0128. Four separate colonies per transformation were precultured for 24 h in YNB containing glycerol (2%), casamino acids (0.5%), and MES (100 mM pH 6.5). Pre-culture was used to inoculate assay medium comprised of YNB containing glycerol (2%), casamino acids (0.5%), MES (100 mM pH 6.5), and olivetolic acid (1 mM). Cultures were quenched after 72 h total growth by mixing with equal volume of EtOH. Enzymes produced CBGA and FCBGA. Averages and standard deviations were calculated from replicates.
However, sCL-SE-0128 expresses HMGR and GPS1.1 to increase intracellular GPP levels for prenylation of OA to CBGA. The plasmids that were transformed contain either a gene expressing a prenyl-transferase (pCL-SE-0380 (MPT4)) or a gene expressing a fusion between GPS1.1 and a prenyl-transferase with different linker sequences.
(§1) Overnight YPD (10 g/L yeast extract, 20 g/L peptone, 2% dextrose) cultures were inoculated from glycerol stocks of the appropriate strain and grown at 30° C. with 250 rpm shaking. Once cultures had reached an OD600 of 4-6, cultures were centrifuged at 500×g for 5 min, supernatants were discarded, and cell pellets were resuspended in equal volume of water. Resuspended cells were centrifuged at 500×g for 5 min, supernatants were discarded, and cells were resuspended in a volume (75 μL×OD×Vculture) of transformation cocktail (45% PEG-400, 0.1 M LiAc, 0.1 M DTT, and 25 ug/100 μL SS Salmon Sperm DNA). For each transformation, >1 μg of plasmid DNA was added to 55 μL cells/transformation cocktail and vortexed for 2 s. Transformations were incubated at 39° C. for 1 h with 250 rpm shaking. Transformations were resuspended in 750 μL YPD with 1 M sorbitol and recovered at 30° C. overnight with 250 rpm shaking. The next day, transformations were centrifuged at 500×g for 5 min, supernatants were discarded, and cell pellets were resuspended in 750 YPD. Resuspended transformations were plated on YPD with appropriate selection or YNBD (6.71 g/L yeast nitrogen base+nitrogen, 0.5% casamino acids, 2% dextrose) agar plates and grown at 30° C. for 2 days. Individual colonies were patched onto YPD plates with appropriate selection or YNBD plates and grown at 30° C. overnight. Patches were used to inoculate 0.5 mL YPD with appropriate selection or YNBD precultures in 96 w blocks and grown at 30° C. for 24-48 h with 1000 rpm shaking. For assays, 0.5 mL YPD with appropriate selection or YNBD cultures containing substrate were inoculated with 2 μL from precultures and grown at 30° C. for 2-4 days with 1000 rpm shaking with 2% glucose added every 24 h. Assay cultures were quenched by addition of 0.5 mL ethanol with 0.2% formic acid and 0.5 mg/mL pentyl-benzoic acid. Precipitates were pelleted by centrifuging at 4600×g for 10 min and then 200 μL was transferred to fresh plates, sealed, and analyzed via HPLC.
(§2) All samples were quenched with equal volume of EtOH containing 0.2 mg/mL internal standard (3,5-Diisopropyl-2-hydroxybenzoic acid CAS #2215-21-6) centrifuged, and clarified solutions were analyzed by HPLC-MS
(§3) • Column: 2.1×50 mm COSMOCORE PBr (Nacalai USA, Inc.) • Mobile Phase: A; 0.1% formic acid in water, B; 0.1% formic acid in acetonitrile • Flow: 0.45 mL/min • Temp: % 50 Celsius • Gradient: 20%B at 0 min, 70%B at 2.3 min, 89% B at 4.2 min, 20% B at 4.3 min, 20%B at 6 min

In test [2] the test system is olivetolic acid. In words: GPS1.1 fusions of MPT21 mutants, OA feed (Example 8, Table 10). The settings on record: in words; mutagenesis of MPT21, tested as GPS1.1-F11 fusions. As for the experimental part: as §1, §2, §3
The subject of test [3] is olivetolic acid. In words: GPS-APT fusions, OA feed in vivo assay (Example 11). As for the experimental part: As described below, plasmids pCL-SE-0406, pCL-SE-0664, pCL-SE-0663, pCL-SE-0662, pCL-SE-0380 (MPT4), pCL-SE-0337.MPT21, pCL-SE-0337.MPT26, and pCL-SE-0337.MPT31 were transformed into strain sCL-SE-0128. Multiple colonies per transformation were precultured for 48 h in YNB containing glucose (2%), casamino acids (0.5%), and MES (100 mM pH 6.5). Pre-culture was used to inoculate assay medium comprised of YNB containing glucose (2%), casamino acids (0.5%), MES (100 mM pH 6.5), and olivetolic acid (2 mM). Cultures were quenched with equal volume of ethanol after 48 h total growth and assayed for CBGA and FCBGA. Averages and standard deviations were calculated from replicates.
Soluble prenyl transferase APT73.77 was fused with GPS1.1 at the N- or C-terminus with different linkers creating the plasmids shown in Table 14. These fusion proteins were expressed and screened as described in Example 8 (olivetolic acid feed)
as §1, §2, §3

Setting [4] is: olivetolic acid feed as in Example 8, 48 h quench, strain sCL-SE-0128.

Numbering of substitutions follows the chain as printed.

B1: GPS1.1-F10-MPT4: fusion protein, SEQ ID NO: 19 (protein)
chain: MSKAKFESVFPRISEELVQLLRDEGLPQDAVQWFSDSLQYNCVGGKLNRGLSVVDTYQLLTGKKELDDEEYYRLALLGWLIELLQAFWLVSDDIMDESKTRRGQPCWYLKPKVGMIAIWDAFMLESGIYILLKKHFRQEKYYIDLVELFHDISFKTELGQLVDLLTAPEDEVDLNRFSLDKHSFIVRYKTAYYSFYLPVVLAMYVAGITNPKDLQQAMDVLIPLGEYFQVQDDYLDNFGDPEFIGKIGTDIQDNKCSWLVNKALQKATPEQRQILEDNYGVKDKSKELVIKKLYDDMKIEQDYLDYEEEVVGDIKKKIEQVDESRGFKKEVLNAFLAKIYKRQKGGAEAAAKEAAAKAAEAAAKEAAAKAAEAAAKEAAAKAAEAAAKEAAAKAGGMSDNSIATKILNFGHTCWKLQRPYVVKGMISIACGLFGRELFNNRHLFSWGLMWKAFFALVPILSFNFFAAIMNQIYDVDIDRINKPDLPLVSGEMSIETAWILSIIVALTGLIVTIKLKSAPLFVFIYIFGIFAGFAYSVPPIRWKQYPFTNFLITISSHVGLAFTSYSATTSALGLPFVWRPAFSFIIAFMTVMGMTIAFAKDISDIEGDAKYGVSTVATKLGARNMTFVVSGVLLLNYLVSISIGIIWPQVFKSNIMILSHAILAFCLIFQTRELALANYASAPSRQFFEFIWLLYYAEYFVYVFI
modifications: GPS1.1-F10-MPT4, geranyl diphosphate synthase, membrane-bound prenyltransferase fusion protein
With B1, in test [1], the CBGA came to 350 ± 17 µM, the FCBGA was determined as 54 ± 1 µM and the CBGA/FCBGA worked out at 6.5.

B2: MPT21.9 (protein)
chain: MSDNSIATKILNFGHTCWKLQRPYVVKGMISIACGLFGKELLHNTNLISWGLMWKAFFALVPILSFNFFASIMNQIYDVDIDRINKPDLPLVSGEMSIETAWILSIIVALTGLIVTIKLKSAPLFVFIYIFGIFAGFAYSVPPIRWKQNPSTNFLITISSHVGLAFTSYYASRAALGLPFELRPSFTFLLAFMTVMGMTIAFAKDISDIEGDAKYGVSTVATKLGARNMTFVVSGVLLLNYVAAILAGIIWPQAFNSNVMLLSHAILAFCLIFQTRELALANYASAPSRQFFEFIWLLYYAEYFVYVFI
modifications: MPT21.9 (recombinant membrane-bound prenyltransferase)
Take B2: the “activity towards CBGA formation” value in test [2] is recorded as “improved activity towards CBGA formation”.

B3: MPT21.18 (protein)
chain: B2 chain with S71A, T275A
modifications: MPT21.18 (recombinant membrane-bound prenyltransferase)
Consider B3, for which the “activity towards CBGA formation” value in test [2] is on record as “improved activity towards CBGA formation”.

B4: MPT21.8 (protein)
chain: B2 chain with S71G
modifications: MPT21.8 (recombinant membrane-bound prenyltransferase)
In the case of B4, in test [2], the “ratio of CBGA/FCBGA” value is reported as “improved ratio of CBGA/FCBGA”.

B5: MPT21.10 (protein)
chain: B2 chain with S71A, I81M
modifications: MPT21.10 (recombinant membrane-bound prenyltransferase)
For the molecule B5, in test [2], the “ratio of CBGA/FCBGA” value is “improved ratio of CBGA/FCBGA”.

B6: MPT21.2 (protein)
chain: B2 chain with Y24M, S71A
modifications: MPT21.2 (recombinant membrane-bound prenyltransferase)
On to B6, for which, in test [2], the “ratio of CBGA/FCBGA” value is listed as “improved ratio of CBGA/FCBGA”.

B7: APT73.77-F18-GPS1.1: fusion protein, SEQ ID NO: 66 (protein)
chain: MDEVYAAVEQTSRLLDVPCSPDRFEPVWKAFGDQLPDSHLVFSMAAGEAHRGELDFDFSLRPEGADPYTTALEHGFIEPTDHPVGSVLAEVGKRFAIASYGVEYGVVGGFKKSYAFFPLDDFPPLAQFAEVPSVPPCLAGHVETLTRLGFDDKVSIIGVNYRKNTLNVYLAASAVDTGDKLALLRAFGYPEPDARVRQFIERSFRLYPTFNWDSSAAERICFAVHTQQPGELPAPHDEPTEAFARQVPHVYEGGREFVSGVALAPSGASYYKLAALYQKARRCLDGGGGSLEDPAVWEAGKVVAKGVGTADITATTSNGLIASSEEADNAATSMSKAKFESVFPRISEELVQLLRDEGLPQDAVQWFSDSLQYNCVGGKLNRGLSVVDTYQLLTGKKELDDEEYYRLALLGWLIELLQAFWLVSDDIMDESKTRRGQPCWYLKPKVGMIAIWDAFMLESGIYILLKKHFRQEKYYIDLVELFHDISFKTELGQLVDLLTAPEDEVDLNRFSLDKHSFIVRYKTAYYSFYLPVVLAMYVAGITNPKDLQQAMDVLIPLGEYFQVQDDYLDNFGDPEFIGKIGTDIQDNKCSWLVNKALQKATPEQRQILEDNYGVKDKSKELVIKKLYDDMKIEQDYLDYEEEVVGDIKKKIEQVDESRGFKKEVLNAFLAKIYKRQK
modifications: APT73.77-F18-GPS1.1, mutant soluble aromatic prenyltransferase, geranyl diphosphate synthase fusion protein
B7: in test [3] (setting [4]), the CBGA came out at 382 ± 26 µM and the FCBGA is 149 ± 4 µM. Also, the CBGA/FCBG in test [3] (olivetolic acid feed, 48 h quench, product ratio) was 2.6.

B8: GPS1.1-F5-MPT4: fusion protein, SEQ ID NO: 17 (protein)
chain: MSKAKFESVFPRISEELVQLLRDEGLPQDAVQWFSDSLQYNCVGGKLNRGLSVVDTYQLLTGKKELDDEEYYRLALLGWLIELLQAFWLVSDDIMDESKTRRGQPCWYLKPKVGMIAIWDAFMLESGIYILLKKHFRQEKYYIDLVELFHDISFKTELGQLVDLLTAPEDEVDLNRFSLDKHSFIVRYKTAYYSFYLPVVLAMYVAGITNPKDLQQAMDVLIPLGEYFQVQDDYLDNFGDPEFIGKIGTDIQDNKCSWLVNKALQKATPEQRQILEDNYGVKDKSKELVIKKLYDDMKIEQDYLDYEEEVVGDIKKKIEQVDESRGFKKEVLNAFLAKIYKRQKGGGGSGGGGSGGGGSMSDNSIATKILNFGHTCWKLQRPYVVKGMISIACGLFGRELFNNRHLFSWGLMWKAFFALVPILSFNFFAAIMNQIYDVDIDRINKPDLPLVSGEMSIETAWILSIIVALTGLIVTIKLKSAPLFVFIYIFGIFAGFAYSVPPIRWKQYPFTNFLITISSHVGLAFTSYSATTSALGLPFVWRPAFSFIIAFMTVMGMTIAFAKDISDIEGDAKYGVSTVATKLGARNMTFVVSGVLLLNYLVSISIGIIWPQVFKSNIMILSHAILAFCLIFQTRELALANYASAPSRQFFEFIWLLYYAEYFVYVFI
modifications: GPS1.1-F5-MPT4, geranyl diphosphate synthase, membrane-bound prenyltransferase fusion protein
B8: in test [1], the CBGA came out at 333 ± 129 µM, the FCBGA amounted to 49 ± 15 µM and the CBGA/FCBGA is on record as 6.8.

The values are drawn from patent US20240228986A1, “ENGINEERED CELLS, ENZYMES, AND METHODS FOR PRODUCING CANNABINOIDS” (priority 2021, published 2024).
